B1: muskelin CTLH-CRA domain, C-terminally shortened (205–719, Δ248–624) (domain or fragment, rat, UniProt Q99PV3 205-719, looked up)
chain: EHPMLTDMHDKLVLKGDFDACEELIEKAVNDGLFNQYISQQEYRPSKDYLLRHCKYLIRKHRFEEKAQMDPLSALKYLQNDLYITVDHSDPEETKEFQLLASALFKSGSDFTALGFSDVDHTYAQRTQLFDTLVNFFP
notes: muskelin, rat, residues 205-719 with 248-624 deleted; Insoluble on its own; soluble only when co-expressed with RanBP9/10 CTLH-CRA domains; also called muskelin (shortened C-terminus); Mkln; not shown: His6, N-terminal, cleaved
B2: Maea CTLH-CRA domain (156-279) (domain or fragment, mouse, UniProt Q4VC33 156-279, looked up)
chain: NIEMFLTAKEVEESLERRETATCLAWCHDNKSRLRKMKSCLEFSLRIQEFIELVRQNKRLDAVRHARKHFSQAEGSQLDEVRQVMGMLAFPPDTHISPYKDLLDPARWRMLIQQFRYDNYRLHQ
notes: Maea, mouse, residues 156-279; In solution between a dimer and a tetramer (dimer of dimers), depending on concentration; source: E. coli BL21 CodonPlus (DE3) RIL, purified (Ni-IDA, 3C cleavage, SEC); also co-expressed with Twa1 (1–228); not shown: His6, N-terminal, cleaved
B3: Maea CTLH-CRA domain double mutant (Y272A, Y275A) (domain or fragment, mouse, UniProt Q4VC33 156-279, looked up)
chain: B2 chain with Y117A, Y120A
notes: Maea, mouse, CTLH-CRA domain; also called Maea double mutant; source: E. coli BL21 CodonPlus (DE3) RIL, purified (Ni-IDA, 3C cleavage, SEC); not shown: His6, N-terminal, cleaved
B4: muskelin (1–735) (natural protein, rat, UniProt Q99PV3 1-735, looked up)
chain: MAAGGAVAAAPECRLLPYALHKWSSFSSTYLPENILVDKPNDQSSRWSSESNYPPQYLILKLERPAIVQNITFGKYEKTHVCNLKKFKVFGGMNEENMTELLSSGLKNDYNKETFTLKHKIDEQMFPCRFIKIVPLLSWGPSFNFSIWYVELSGIDDPDIVQPCLNWYSKYREQEAIRLCLKHFRQHNYTEAFESLQKKTKIALEHPMLTDMHDKLVLKGDFDACEELIEKAVNDGLFNQYISQQEYKPRWSQIIPKSTKGDGEDNRPGMRGGHQMVIDVQTETVYLFGGWDGTQDLADFWAYSVKENQWTCISRDTEKENGPSARSCHKMCIDIQRRQIYTLGRYLDSSVRNSKSLKSDFYRYDIDTNTWMLLSEDTAADGGPKLVFDHQMCMDSEKHMIYTFGGRILTCNGSVDDSRASEPQFSGLFAFNCQCQTWKLLREDSCNAGPEDIQSRIGHCMLFHSKNRCLYVFGGQRSKTYLNDFFSYDVDSDHVDIISDGTKKDSGMVPMTGFTQRATIDPELNEIHVLSGLSKDKEKREENVRNSFWIYDIVRNSWSCVYKNDQAAKENLSKSLQEEEPCPRFAHQLVYDELHKVHYLFGGNPGKSCSPKMRLDDFWSLKLCRPSKDYLLRHCKYLIRKHRFEEKAQMDPLSALKYLQNDLYITVDHSDPEETKEFQLLASALFKSGSDFTALGFSDVDHTYAQRTQLFDTLVNFFPDSMTPPKGNLVDLITL
notes: muskelin, rat, residues 1-735; also called full-length muskelin; tetrameric muskelin; source: E. coli BL21 CodonPlus (DE3) RIL, purified as described previously (van gen Hassend et al., 2023)
B5: Twa1_14 mutant (A125G, Q126R, ΔT127, Q128E, A130Q, M143L, E144Q, L147F, A148S, F152Y, F160V; 58–190), CTLH-CRA domain (domain or fragment, mouse, UniProt Q9D7M1 58-190, looked up)
chain: SVDLETLDERIKIREMILKGQIQEAIALINSLHPELLDTNRYLYFHLQQQHLIELIRQRETEAALEFGRELQEQGEESRECLTELQRTFSLLAYDSPEESPVGDLLHMMQRQKVWSEVNQAVLDYENRESTP
notes: Twa1, mouse, CTLH-CRA domain 58-190 with eleven RanBP10-like changes; also called Twa_14; source: E. coli BL21 CodonPlus (DE3) RIL, purified (Ni-IDA, 3C cleavage, SEC); not shown: His6, N-terminal, cleaved
B6: Wdr26 (102–641) (domain or fragment, mouse, UniProt Q8C6G8 102-641, looked up)
chain: QSDEDVIRLIGQHLNGLGLNQTVDLLMQESGCRLEHPSATKFRNHVMEGDWDKAENDLNELKPLVHSPHAIVVRGALEISQTLLGIIVRMKFLLLQQKYLEYLEDGKVLEALQVLRCELTPLKYNTERIHVLSGYLMCSHAEDLRAKAEWEGKGTASRSKLLDKLQTYLPPSVMLPPRRLQTLLRQAVELQRDRCLYHNTKLDNNLDSVSLLIDHVCSRRQFPCYTQQILTEHCNEVWFCKFSNDGTKLATGSKDTTVIIWQVDPDTHLLKLLKTLEGHAYGVSYIAWSPDDSYLVACGPDDCSELWLWNVQTGELRTKMSQSHEDSLTSVAWNPDGKRFVTGGQRGQFYQCDLDGNLLDSWEGVRVQCLWCLSDGKTVLASDTHQRVRGYNFEDLTDRNIVQEDHPIMSFTISKNGRLALLNVATQGVHLWDLQDRVLVRKYQGVTQGFYTIHSCFGGHNEDFIASGSEDHKVYIWHKRSELPIAELTGHTRTVNCVSWNPQIPSMMASASDDGTVRIWGPAPFIDHQNIEEECSSMDS
notes: Wdr26, mouse, residues 102-641; also called dimeric Wdr26; (near) full-length Wdr26; source: E. coli BL21 CodonPlus (DE3) RIL, purified as described previously (van gen Hassend et al., 2023)
B7: Rmnd5a CTLH-CRA domain (147-275) (domain or fragment, mouse, UniProt Q80YQ8 147-275, looked up)
chain: DPSQKEPFVELNRILEALKVRVLRPALEWAVSNREMLIAQNSSLEFKLHRLYFISLLMGGTTNQREALQYAKNFQPFALNHQKDIQVLMGSLVYLRQGIENSPYVHLLDANQWADICDIFTRDACALLG
notes: Rmnd5a, mouse, residues 147-275; Could not be purified on its own; soluble when co-expressed with Twa1; source: E. coli BL21 CodonPlus (DE3) RIL, co-expressed with Twa1 (1–228), complex purified (Ni-IDA, 3C cleavage, SEC); not shown: His6, N-terminal, cleaved
B8: muskelin CTLH-CRA domain (205–735 Δ248–625) (domain or fragment, rat, UniProt Q99PV3 205-735, looked up)
chain: EHPMLTDMHDKLVLKGDFDACEELIEKAVNDGLFNQYISQQEYPSKDYLLRHCKYLIRKHRFEEKAQMDPLSALKYLQNDLYITVDHSDPEETKEFQLLASALFKSGSDFTALGFSDVDHTYAQRTQLFDTLVNFFPDSMTPPKGNLVDLITL
notes: muskelin, rat, fusion of the CTLH motif and the C-terminus (CRA^N-like): residues 205-735 with 248-625 deleted; also called muskelin wt; CTLH-Ct construct; source: E. coli BL21 CodonPlus (DE3) RIL, purified as described previously (van gen Hassend et al., 2023)

The target in data set [1] is T1, RanBP9 CTLH-CRA domain (324–614, Δ391–534) (mouse, UniProt P69566 324-614, Δ391–534).
T1 construct: RanBP9, mouse, fusion of CTLH and CRA^N: residues 324-614 with the linker 391-534 deleted (without the CRA^C segment); A longer construct with the CRA^C segment (324–638, Δ391–534) was crystallised alone (PDB 9SNE); also called R9
Kind of data set: SEC-MALS; CTLH-CRA domain complexes co-expressed in E. coli and purified as complexes; Superdex 75 10/300 GL; 20 mM tricine pH 8.0, 500 mM NaCl, 1 mM TCEP. Conditions: both partners purified. Background: Size exclusion chromatography separates by hydrodynamic size, large species first.

Another data set deals with T2, Twa1 (1–228) (mouse, UniProt Q9D7M1 1-228).
T2 construct: Twa1, mouse, residues 1-228; A homodimer on its own (SEC-MALS); one copy pairs with RanBP10 in the heterodimer of PDB 9SOC; also called full-length dimeric Twa1; source: E. coli BL21 CodonPlus (DE3) RIL, purified as described previously (van gen Hassend et al., 2023)
Kind of data set: SEC-MALS; Superdex 200 10/300 GL; Twa1 (1–228) alone, co-expressed Twa1-Rmnd5a (CTLH-CRA) and Twa1-Maea (CTLH-CRA) complexes, Maea double mutant (Y272A, Y275A). Particulars: both partners purified.

Data set [2] concerns the target T3, Twa1_10 mutant (A130Q, L147F, F152Y, F160V), CTLH-CRA domain (mouse, UniProt Q9D7M1 58-190, A130Q | L147F | F152Y | F160V).
T3 construct: Twa1, mouse, CTLH-CRA domain 58-190 with four RanBP10-like substitutions; source: E. coli BL21 CodonPlus (DE3) RIL, purified (Ni-IDA, 3C cleavage, SEC); not shown: His6, N-terminal, cleaved
Kind of data set: native gel or EMSA; native agarose gel electrophoresis (NAGE): CTLH-CRA domains at 200 μM incubated with the partner at least 30 min at room temperature; 0.8% agarose, 25 mM Tris, 200 mM glycine, 4°C; Coomassie. Conditions: both partners purified.

Data set [3] deals with B5. The description is as above. Conditions: both partners purified.
Data set [4] concerns the molecule itself. Kind of data set: SEC-MALS; Maea CTLH-CRA dilution series, Superdex 200 10/300 GL; molar masses of 0.3 ml peak fractions against concentration, one-site binding fit; the constant is of the step tetramer (dimer of dimers) to dimers.
Data set [5] concerns the molecule itself. Kind of data set: SEC-MALS; Superdex 200 10/300 GL; Twa1 (1–228) alone, co-expressed Twa1-Rmnd5a (CTLH-CRA) and Twa1-Maea (CTLH-CRA) complexes, Maea double mutant (Y272A, Y275A).
Data set [6] concerns the molecule itself. Kind of data set: SEC-MALS; ITC-assembled samples: excess RanBP9-Twa1 added to pre-assembled Twa1_52-muskelin or Twa1_52-Wdr26; Superose 6 10/300 GL.
For data set [7], the target named is T4, RanBP9 (69–653)-Twa1 (1–228) complex (mouse, UniProt P69566 69-653; Q9D7M1 1-228).
T4 construct: RanBP9, mouse, residues 69-653; Twa1, mouse, residues 1-228; In the text on the KD values the complex is called simply RanBP9; also called RanBP9-Twa1; source: E. coli BL21 CodonPlus (DE3) RIL, complex purified as described previously (van gen Hassend et al., 2023)
Kind of data set: ITC; competition: RanBP9-Twa1 or RanBP10-Twa1 complex (160 μM) titrated into pre-formed Twa1_52-muskelin or Twa1_52-Wdr26 complex (16 μM); 25°C; competitive binding model with the parameters of the first titration. Conditions: both partners purified. (In general: Isothermal titration calorimetry measures the heat released or taken up as one component is titrated into another.)

In data set [8] the target is B8. Kind of data set: ITC; muskelin CTLH-CRA (160 μM, syringe) titrated into RanBP10 or Twa1 CTLH-CRA variants (16 μM, cell); 25°C; 20 mM tricine pH 8.0, 500 mM NaCl, 1 mM TCEP; one-site model. Conditions: both partners purified.
Data set [9] deals with T5, Twa1_52 mutant (A125G, Q126R, Δ127T, L140K, E144K, L147F, F152Y, F160V), CTLH-CRA domain (mouse, UniProt Q9D7M1 58-190, A125G | Q126R | Δ127T | L140K | E144K | L147F | F152Y | F160V).
T5 construct: Twa1, mouse, CTLH-CRA domain 58-190 with eight changes; source: E. coli BL21 CodonPlus (DE3) RIL, purified (Ni-IDA, 3C cleavage, SEC); also tagless, co-expressed with muskelin or Wdr26 CTLH-CRA domain; not shown: His6, N-terminal, cleaved
Kind of data set: SEC-MALS; purified CTLH-CRA domains alone or mixed (RanBP10 and Twa1 variants with Maea or muskelin), final concentration 250 μM, Superdex 75 10/300 GL. Conditions: both partners purified.

Changes are numbered by the printed parent chain. Numbers in names are those of the source. Where “and” joins values, the source holds several entries; their conditions need not be identical. Equal entries are not always repeated.

T2 sequence (Q9D7M1 whole entry, the tested form may be a part): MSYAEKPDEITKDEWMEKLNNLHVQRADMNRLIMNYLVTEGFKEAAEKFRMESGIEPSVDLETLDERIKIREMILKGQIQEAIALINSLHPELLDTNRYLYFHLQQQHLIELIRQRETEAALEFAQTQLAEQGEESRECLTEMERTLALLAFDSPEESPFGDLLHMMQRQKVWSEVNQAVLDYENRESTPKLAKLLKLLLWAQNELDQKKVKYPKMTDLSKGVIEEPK
T4 sequence (P69566 69-653, chain 1 of 2): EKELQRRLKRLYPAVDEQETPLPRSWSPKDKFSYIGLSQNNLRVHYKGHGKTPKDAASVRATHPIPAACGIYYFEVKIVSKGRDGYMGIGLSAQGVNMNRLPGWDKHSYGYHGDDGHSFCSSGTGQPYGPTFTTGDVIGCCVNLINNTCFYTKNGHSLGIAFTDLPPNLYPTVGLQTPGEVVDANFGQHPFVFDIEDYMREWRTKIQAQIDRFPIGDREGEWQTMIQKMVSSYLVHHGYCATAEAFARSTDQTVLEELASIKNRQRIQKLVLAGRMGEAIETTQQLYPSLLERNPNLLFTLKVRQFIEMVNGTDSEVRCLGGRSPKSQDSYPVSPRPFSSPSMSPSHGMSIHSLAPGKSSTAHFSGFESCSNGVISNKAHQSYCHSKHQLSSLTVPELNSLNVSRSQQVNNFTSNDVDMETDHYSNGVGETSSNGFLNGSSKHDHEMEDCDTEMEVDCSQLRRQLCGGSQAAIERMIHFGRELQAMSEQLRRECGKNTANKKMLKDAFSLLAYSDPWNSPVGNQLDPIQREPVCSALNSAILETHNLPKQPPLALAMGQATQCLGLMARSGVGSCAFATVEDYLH
T4 sequence (Q9D7M1 whole entry, chain 2 of 2, the tested form may be a part): as the sequence (Q9D7M1 whole entry, the tested form may be a part) above
T1 sequence (P69566 other isoform, or with tags, fused parts or gaps Δ391–534 | Δ391–534 | mutant): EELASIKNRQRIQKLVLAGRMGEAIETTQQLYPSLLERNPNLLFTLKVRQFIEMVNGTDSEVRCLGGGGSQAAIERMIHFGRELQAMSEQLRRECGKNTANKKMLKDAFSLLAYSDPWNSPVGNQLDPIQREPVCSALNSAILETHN

Usually stoichiometry N stands for a count of units in the complex or per binding partner. In the case of B1, the “stoichiometry N” value in [1] was determined as 1.
Usually Kd stands for the concentration at which binding is half-saturated. Regarding B2, the “stoichiometry N” value is 1 in the data set with Twa1 (1–228); 2 and 4 in data set [4]. Besides, the binding result in [2] and in data set [3] was “binds” each time. The molecule further showed a Kd in [4] of roughly 5000 nM.
In the case of B3, the “stoichiometry N” value in data set [5] was found to be 2.
For B4, in data set [6], the “stoichiometry N” value came out at 4. In data set [7], this molecule returned a Kd of 0.0795 nM.
As for B5, the Kd in data set [8] was found to be 192 nM.
B6: the “stoichiometry N” value in data set [6] was 2. The molecule also registered a Kd in data set [7] of 0.412 nM.
B7: in the data set with Twa1 (1–228), the “stoichiometry N” value was determined as 1.
Consider B8, for which, in data set [9], the “stoichiometry N” value is 1.

These data come from article PMC13061415, “A structural code for assembly specificity in GID/CTLH-type E3 ligases” (eLife, 2026).
